{
  "source": "patent US10842793B2",
  "about": "“Inhibitors of the unconventional secretion of fibroblast growth factor 2 (FGF2) by tumor cells and uses thereof” (Universität Heidelberg, priority 2016, dated 2020)",
  "key": {"SH1 kinase domain of Tec": {"biological_target": "T1, SH1 kinase domain of Tec (Homo sapiens, UniProt P42680)", "T1 construct": "yielding a homogenous preparation of the SH1 kinase domain; His (N, cleaved yes); made in house; host or cells: Tec SH1: SF9 insect cells (baculovirus); FGF2: E. coli", "T1 sequence (P42680 370-623 limits assumed)": "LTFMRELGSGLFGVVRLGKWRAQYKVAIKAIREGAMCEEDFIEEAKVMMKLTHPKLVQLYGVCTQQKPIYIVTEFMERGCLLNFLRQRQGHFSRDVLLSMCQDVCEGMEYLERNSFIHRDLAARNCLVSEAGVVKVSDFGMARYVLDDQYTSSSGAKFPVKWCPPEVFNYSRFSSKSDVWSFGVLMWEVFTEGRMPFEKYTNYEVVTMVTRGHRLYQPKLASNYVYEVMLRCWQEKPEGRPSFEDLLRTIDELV", "experiment": "Steady-state fluorescence polarization, FGF2 binding to SH1 kinase domain of Tec", "conditions": "fluorescein-labeled FGF2 50 nM, 1:1 stoichiometry, ± SEM; read-out: dissociation constant FGF2 / SH1 kinase domain of Tec", "experimental": "(§1) (A) Fluorescence polarization experiments were conducted using fluorescein-labeled FGF2. FGF2 (at a constant concentration of 50 nM) was incubated with increasing concentrations (0 to 20 μM) of the various Tec constructs indicated. Following incubation for 3 hours at room temperature, changes in polarization (ΔPolarization in mP) were recorded. A non-linear regression analysis was conducted (GST-NΔ173 Tec: black circles, n=8; SH1 kinase domain: green squares, n=5; GST-PH-TH: blue triangles, n=3; GST-SH3-SH2: red triangles, n=3; GST: orange rhombuses, n=5) and standard errors of the mean (SEM) were calculated. As detailed in Experimental Procedures, assuming a binding stoichiometry of 1:1, dissociation constants were calculated to be 1.434 μM±0.55 (SEM) for GST-NΔ173 Tec and 1.032 μM±0.29 (SEM) for the SH1 kinase domain of Tec. FIG. 2A discloses “His6” as SEQ ID NO: 2.\n(§2) To determine binding affinity between Tec kinase and FGF2, steady-state fluorescence polarization was used. […] Based on the extinction coefficients of both His-tagged FGF2 and fluroscein-5-maleimide, the degree of labeling was determined to be 30%. […] Absolute protein concentrations were determined based upon the extinction coefficients calculated for each protein and measuring absorption at 280 nm using a NanoDrop 1000 spectrophotometer. […]"}, "GST-NΔ173 Tec": {"biological_target": "T2, GST-NΔ173 Tec (Homo sapiens, UniProt P42680)", "T2 construct": "made in house; host or cells: Tec: SF9 insect cells (baculovirus); FGF2: E. coli", "T2 sequence (P42680 174-631, stated change not applied)": "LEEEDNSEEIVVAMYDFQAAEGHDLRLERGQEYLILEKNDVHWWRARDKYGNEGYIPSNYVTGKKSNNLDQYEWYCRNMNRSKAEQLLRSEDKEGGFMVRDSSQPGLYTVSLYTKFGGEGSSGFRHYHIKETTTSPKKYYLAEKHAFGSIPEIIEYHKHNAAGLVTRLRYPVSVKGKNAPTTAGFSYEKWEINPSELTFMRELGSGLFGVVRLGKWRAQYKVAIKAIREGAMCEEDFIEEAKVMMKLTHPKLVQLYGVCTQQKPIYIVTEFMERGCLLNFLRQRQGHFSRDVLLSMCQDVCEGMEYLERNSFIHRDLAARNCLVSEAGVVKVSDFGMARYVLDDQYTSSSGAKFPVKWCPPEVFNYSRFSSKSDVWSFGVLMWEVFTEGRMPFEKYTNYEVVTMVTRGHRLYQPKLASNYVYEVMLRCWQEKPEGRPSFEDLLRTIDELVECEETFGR", "experiment": "Steady-state fluorescence polarization, FGF2 binding to GST-NΔ173 Tec", "conditions": "fluorescein-labeled FGF2 50 nM, 1:1 stoichiometry, ± SEM; read-out: dissociation constant FGF2 / GST-NΔ173 Tec", "experimental": "as §1, §2"}},
  "data": [
    {"substance": "FGF2: recombinant fibroblast growth factor 2, His-tagged and fluorescein-labeled for fluorescence polarization", "values": [
      {"measurement": "Kd", "setting": "SH1 kinase domain of Tec", "value": 1030, "unit": "nM"},
      {"measurement": "Kd", "setting": "GST-NΔ173 Tec", "value": 1430, "unit": "nM"}
    ]}
  ]
}
